According to article PMC12410710:

Biological target: CsrA (Salmonella Typhimurium) (UniProt P69916)
Assay: SEC; S75 Superdex column after Ni2+-NTA; SEC buffer 25 mM Tris, 150 mM NaCl, 10% glycerol, 1 mM DTT, pH 7.5; oligomeric state judged from the elution profile

Sequence of CsrA, P69916 1-61 (natural protein; other documents disagree on this pair) (P69916 whole entry): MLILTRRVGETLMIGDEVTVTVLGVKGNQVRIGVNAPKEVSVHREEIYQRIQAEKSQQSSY

Substance: CsrA, P69916 1-61 (natural protein; other documents disagree on this pair)
- stoichiometry N: 2
